Data: paper doi:10.1101/2022.08.24.505195 (bioRxiv, 2022)

Molecular target: the molecule itself
Assay: SEC

B1: EBOV VP40 with 6xHis tag (pET46-VP40-6xHis), recombinant dimer (natural protein)
chain: MRRVILPTAPPEYMEAIYPVRSNSTIARGGNSNTGFLTPESVNGDTPSNPLRPIADDTIDHASHTPGSVSSAFILEAMVNVISGPKVLMKQIPIWLPLGVADQKTYSFDSTTAAIMLASYTITHFGKATNPLVRVNRLGPGIPDHPLRLLRIGNQAFLQEFVLPPVQLPQYFTFDLTALKLITQPLPAATWTDDTPTGSNGALRPGISFHPKLRPILLPNKSGKKGNSADLTSPEKIQAIMTSLQDFKIVPIDPTKNIMGIEVPETLVHKLTGKKVTSKNGQPIIPVLLPKYIGLDPVAPGDLTMVITQDCDTCHSPASLPAVIEK
B1 was tested, and the “stoichiometry N” value was 2.
